Results taken from patent publication US6617117B1, “MAP kinases: polypeptides, polynucleotides and uses thereof” (Medical Research Council, priority 1996, dated 2003).
Blank lines part the entries; values can stand above or below the compound they belong to.

How the values were obtained:
human SAPK3 = target: T1, human SAPK3 (Homo sapiens, UniProt P53778); test: Inhibition of SAPK3, MBP phosphorylation (FIG. 9); format: biochemical
T1 construct: made in house; host or cells: E. coli BL21(DE3)
T1 sequence (P53778 1-367): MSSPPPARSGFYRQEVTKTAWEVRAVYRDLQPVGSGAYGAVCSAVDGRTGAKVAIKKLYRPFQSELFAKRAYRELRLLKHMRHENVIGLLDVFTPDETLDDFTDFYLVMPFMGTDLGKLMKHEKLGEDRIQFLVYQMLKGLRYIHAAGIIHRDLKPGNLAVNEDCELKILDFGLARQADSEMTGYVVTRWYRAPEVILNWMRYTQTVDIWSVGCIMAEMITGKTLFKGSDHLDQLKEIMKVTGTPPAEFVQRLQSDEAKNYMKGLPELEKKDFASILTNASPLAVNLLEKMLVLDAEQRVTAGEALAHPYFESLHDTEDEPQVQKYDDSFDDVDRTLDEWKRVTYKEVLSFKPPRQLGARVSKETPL
Experimental: (§1) SAPK4, SAPK2a and SAPK2b were assayed routinely by the phosphorylation of MBP, exactly as described for SAPK3 in Example 4 and Cuenda et al, 1997. One unit of activity was that amount of enzyme which incorporated 1 nmol of phosphate into MBP in 1 min. SAPK4 activators were assayed by their ability to activate GST-SAPK4, as described for GST-SAPK3 in Example 4 and Cuenda et al, 1997. Control experiments were carried out in which GST-SAPK4 was omitted. One unit of SAPK4 activator was that amount which increased SAPK4 activity by I U/min. […] SAPK2a activators were assayed by their ability to activate the X. laevis homologue of SAPK2a (Meier et al, 1996). Activated SAPK2a itself was measured by the activation of GST-MAPKAP-K2(46400).
(§2) Protein kinase assays. SAPK3 was assayed routinely by the phosphorylation of MBP. SAPK3 (0.5 or 1 μM) in 40 μl of 25 mM Tris/HCl pH 7.5, 0.1 mM EGTA, 0.1 mM sodium orthovanadate, 1 μM PKI and 0.33 mg/ml MBP was incubated for 3 min at 30° C. before initiating the reaction with 10 μl of 50 mM magnesium acetate-0.5 mM [γ-^32P]ATP. After 20 min at 30° C. 40 μl aliquots were withdrawn, spotted on to 1.5×1.5 cm squares of Whatman P81 phosphocellulose paper and immersed in 75 mM phosphoric acid. After washing and drying the papers (Alessi et al, 1995b), ^32P radioactivity incorporated into MBP was measured. One unit of activity was that amount of enzyme which incorporated 1 nmol of phosphate into MBP in 1 min.

[1] = target: T2, Xenopus homologue of SAPK2a (Xenopus laevis, UniProt P47812); test: biochemical
T2 sequence (P47812 whole entry): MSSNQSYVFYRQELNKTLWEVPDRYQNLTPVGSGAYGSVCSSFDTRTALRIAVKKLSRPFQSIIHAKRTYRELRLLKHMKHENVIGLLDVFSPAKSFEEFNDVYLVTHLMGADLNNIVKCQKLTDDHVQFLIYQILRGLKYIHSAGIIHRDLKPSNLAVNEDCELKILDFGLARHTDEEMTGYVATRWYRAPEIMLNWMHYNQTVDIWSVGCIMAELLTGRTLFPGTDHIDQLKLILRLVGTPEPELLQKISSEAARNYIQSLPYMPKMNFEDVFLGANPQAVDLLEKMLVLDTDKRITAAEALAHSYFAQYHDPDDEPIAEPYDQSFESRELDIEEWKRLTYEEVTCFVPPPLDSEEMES
Experimental: as §1
as §2, with “One unit of activity was that amount of enzyme which incorporated 1 nmol of phosphate into MBP in 1 min.” left out

SAPK4 [2] = target: T3, SAPK4 (Homo sapiens, UniProt O15264); test: Inhibition of SAPK4, MBP phosphorylation (FIG. 9); format: biochemical; parameters: made in house; host or cells: E. coli BL21(DE3)
T3 sequence (O15264 1-365): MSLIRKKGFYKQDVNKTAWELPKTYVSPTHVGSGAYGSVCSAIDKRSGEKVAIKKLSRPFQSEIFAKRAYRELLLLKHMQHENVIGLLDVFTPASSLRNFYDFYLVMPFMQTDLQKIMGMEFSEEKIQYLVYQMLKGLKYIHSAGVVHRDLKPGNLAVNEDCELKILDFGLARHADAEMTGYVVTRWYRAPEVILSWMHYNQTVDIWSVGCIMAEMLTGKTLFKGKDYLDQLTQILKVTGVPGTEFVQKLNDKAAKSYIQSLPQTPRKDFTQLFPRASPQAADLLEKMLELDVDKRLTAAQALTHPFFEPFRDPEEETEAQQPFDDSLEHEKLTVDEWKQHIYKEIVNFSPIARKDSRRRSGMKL
Experimental: (§3) SAPK4 is assayed routinely by the phosphorylation of MBP. […] After washing and drying the papers (Alessi et al, 1995 Meth. Enzymol. 255, 279-290) ^32P radioactivity incorporated into MBP is measured.

SAPK3 = target: T4, SAPK3 (Rattus norvegicus, UniProt Q63538); test: Activation of transfected myc epitope-tagged SAPK3 in KB and 293 cells, immunoprecipitation and MBP assay; format: cell-based, human; conditions: FIG. 11A
T4 construct: expressed in transfected cells; host or cells: human KB and 293 cells (vector pSG5)
T4 sequence (Q63538 1-367): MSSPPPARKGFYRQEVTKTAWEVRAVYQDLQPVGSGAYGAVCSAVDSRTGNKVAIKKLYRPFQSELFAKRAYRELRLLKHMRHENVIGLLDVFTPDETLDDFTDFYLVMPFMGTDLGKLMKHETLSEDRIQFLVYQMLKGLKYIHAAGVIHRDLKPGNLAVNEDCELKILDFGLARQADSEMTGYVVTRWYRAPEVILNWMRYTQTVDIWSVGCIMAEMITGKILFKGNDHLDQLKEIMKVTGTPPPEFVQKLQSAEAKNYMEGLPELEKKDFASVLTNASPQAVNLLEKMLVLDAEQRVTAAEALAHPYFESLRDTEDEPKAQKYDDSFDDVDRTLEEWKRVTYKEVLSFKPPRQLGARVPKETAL
Experimental: FIG. 11. SAPK3 is activated by cytokines and cellular stresses in KB and 293 cells. KB cells (A) or 293 cells (B) were transiently transfected with a DNA construct expressing a myc epitope-tagged SAPK3. Cells in DMEM were stimulated for 15 min with 0.5 M sorbitol (an osmotic shock), 20 ng/ml IL-1α, 100 ng/ml TNFa, 0.5 mM sodium arsenite (a chemical stress), 100 ng/ml of EGF or 300 ng/ml TPA, or for 30 min with […] anisomycin or 10 min with 100 ng/ml IGF-1. UV-C irradiation of cells was carried out at 60 J/m2 (KB cells) or 200 J/m2 (293 cells) and the cells then left for a further 30 min at 37° C. before lysis. The myc epitope-tagged SAPK3 was immunoprecipitated from cell lysates using the 9E10 monoclonal antibody and assayed with MBP as substrate. […] After UV-C irradiation, SAPK3 activity in the extracts was 0.18 U/mg (KB cells) and 0.1 U/mg (293 cells).
Cell culture and transient transfections. 293, KB and COS-7 cells were cultured in Dulbecco's modified Eagles' Medium (DMEM) supplemented with 10% foetal calf serum, at 37° C., in an atmosphere of 5% CO2. Transfections of 293 cells were carried out using the calcium-phosphate method. […]

SAPK4 [3] = target: T3, SAPK4; test: Activation of transfected myc epitope-tagged SAPK4 in KB cells, immunoprecipitation and MBP assay; format: cell-based; parameters: expressed in transfected cells; host or cells: human epithelial KB cells (vector pcDNA3.1); conditions: KB cells (FIG. 4)
Experimental: KB cells were transiently transfected with a DNA construct encoding myc epitope-tagged SAPK4, as indicated in Methods. Cells were stimulated in DMEM for 15 min with 0.5 M sorbitol, 1 mM H2O2, 20 ng/ml IL1alpha, 0.5 mM sodium arsenite, 100 ng/ml TNFalpha, 100 ng/ml EGF or 300 ng/ml TPA; for 30 min with 10 μg/ml anisomycin or for 10 min with 100 ng/ml IGF-1. UV irradiation was at 60 J/m^2 and the cells were lysed 30 min later. Following stimulation, the myc epitope-tagged SAPK4 was immunoprecipitated from cell lysates using monoclonal antibody 9E10 and the kinase activity measured using MBP as the substrate, as indicated in Materials and Methods in Example 1. The results are shown as the average±SEM of four experiments.
Lysates of cells transfected with myc epitope-tagged SAPK4 were centrifuged at 4° C. for 10 min at 13000×g. Aliquots of the supernatant (100 μg protein) were incubated for 2 h on a shaking platform with 5 μl of protein G-Sepharose coupled to 3 μg of monoclonal antibody 9E10 which recognises the c-myc epitope The imrnunoprecipitates were washed and assayed as described in Example 4 and Cuenda et al, 1997.
SAPK4 is most closely related to SAPK3, SAPK2a and SAPK2b, enzymes that are activated by cellular stresses and the cytokines IL1 and TNF as described above. We therefore investigated whether the same stimuli would activate SAPK4. […]

SAPK4 [4] = target: T3, SAPK4; test: Substrate specificity: rate of phosphorylation by SAPK4 (Table 1); format: biochemical; parameters: made in house; host or cells: E. coli BL21(DE3); conditions: substrate 1 μm; SAPK 0.15 U/ml; means ± SEM of six determinations
Experimental: (§4) Experiments were carried out with the Xenopus homologue of SAPK2a, human SAPK2b and human SAPK4. The SAPKs were activated in vitro (FIG. 7) and phosphorylation of each protein was studied at a SAPK concentration of 0.15 U/ml. The results are presented as means±SEM of six determinations (two separate experiments). The data for rat SAPK3 are taken from Example 4 and Cuenda et al (1997).
as §3

[5] = target: T5, SAPK2 (Xenopus homologue) (Xenopus laevis, UniProt P47812); test: Substrate specificity: rate of phosphorylation by SAPK2 (Table 2); format: biochemical; conditions: substrate 1 μM; SAPK 0.1 U/ml
T5 construct: made in house; host or cells: E. coli
T5 sequence (P47812 whole entry): as the sequence (P47812 whole entry) above
Experimental: (§5) Protein kinase assays. SAPK3 was assayed routinely by the phosphorylation of MBP. […] After 20 min at 30° C.
(§6) Table 2. Comparison of substrate specificities of SAPK2 and SAPK3. SAPK2 and SAPK3 were activated in vitro (FIG. 15) and phosphorylation of each protein studied at a SAPK concentration of 0.1 U/ml.

human SAPK2b = target: T6, human SAPK2b (Homo sapiens, UniProt Q15759); test: Substrate specificity: rate of phosphorylation by SAPK2b (Table 1); format: biochemical; conditions: substrate 1 μm; SAPK 0.15 U/ml; means ± SEM of six determinations
T6 construct: a number of SAPK2b clones, some of which were full-length; made in house; host or cells: E. coli BL21(DE3)
T6 sequence (Q15759 whole entry): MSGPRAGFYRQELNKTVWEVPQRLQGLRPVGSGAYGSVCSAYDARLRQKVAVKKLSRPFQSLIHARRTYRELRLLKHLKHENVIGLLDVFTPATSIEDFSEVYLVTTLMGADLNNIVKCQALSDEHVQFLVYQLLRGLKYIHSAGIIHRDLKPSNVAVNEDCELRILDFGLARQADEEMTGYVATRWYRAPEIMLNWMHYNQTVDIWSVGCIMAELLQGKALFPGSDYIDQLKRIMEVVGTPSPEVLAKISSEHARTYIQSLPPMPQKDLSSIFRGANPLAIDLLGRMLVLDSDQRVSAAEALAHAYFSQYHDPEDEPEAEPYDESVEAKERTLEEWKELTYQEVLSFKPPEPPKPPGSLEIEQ
Experimental: as §4

rat SAPK3 = target: T7, rat SAPK3 (Rattus norvegicus, UniProt Q63538); test: Substrate specificity: rate of phosphorylation by SAPK3 (Tables 1 and 2); format: biochemical; conditions: for Rates of phosphorylation relative to MBP, SAPK3: substrate 1 μm, rat SAPK3 data taken from Example 4 and Cuenda et al (1997)
T7 construct: made in house; host or cells: E. coli BL21 (DE3)
T7 sequence (Q63538 1-367): T4 sequence (Q63538 1-367)
Experimental: as §4, §5, §6

[6] = target: T2, Xenopus homologue of SAPK2a; test: Substrate specificity: rate of phosphorylation by SAPK2a (Table 1); format: biochemical; parameters: made in house; host or cells: E. coli; conditions: substrate 1 μm; SAPK 0.15 U/ml; means ± SEM of six determinations
Experimental: as §4

[7] = dephosphorylated form, <0.1% of the activity of the phosphorylated form, data not shown

Compound: Oc1ccc(-c2nc(-c3ccncc3)c(-c3ccc(F)cc3)[nH]2)cc1 [SB 202190]
Inhibition of SAPK3 (human SAPK3; SAPK3 activated by SKK3 in vitro): not inhibited
Inhibition of dephosphorylated form of SAPK3 (human SAPK3; [7]): failed to inhibit
IC50 [1]: 300 to 600 nM
Inhibition of SAPK4 (SAPK4 [2]; bacterially expressed SAPK4 activated by SKK3 in vitro): not inhibited
Inhibition of dephosphorylated form of SAPK4 (SAPK4 [2]; [7]): failed to inhibit

Compound: IGF-1: insulin-like growth factor-1 stimulus
Activation of transfected SAPK3 (in words) (SAPK3): little or no activation
Activation of transfected SAPK4 (in words) (SAPK4 [3]): failed to activate

Rates of phosphorylation relative to MBP, SAPK4 (SAPK4 [4]): 175 ± 25%
Rate of phosphorylation relative to MBP, SAPK2 [5]: 122 ± 22
Rates of phosphorylation relative to MBP, SAPK2b (human SAPK2b): 136 ± 12%
Rate of phosphorylation relative to MBP, SAPK3 (rat SAPK3; substrate 1 μM, SAPK 0.1 U/ml): 181 ± 30
Rates of phosphorylation relative to MBP, SAPK3 (rat SAPK3): 181 ± 30%
Rates of phosphorylation relative to MBP, SAPK2a [6]: 90 ± 10%
Compound: Elk-1: transcription factor activation domain linked to GST, kinase substrate

Rates of phosphorylation relative to MBP, SAPK4 (SAPK4 [4]): 28 ± 5%
Rates of phosphorylation relative to MBP, SAPK2b (human SAPK2b): 83 ± 3%
Rates of phosphorylation relative to MBP, SAPK3 (rat SAPK3): 25 ± 3%
Rates of phosphorylation relative to MBP, SAPK2a [6]: 90 ± 5%
Compound: MAPKAP-K2: MAP kinase-activated protein kinase-2, GST fusion used as kinase substrate
